Data: paper PMC12784961, “Structure of Bacillus subtilis Ku-mediated DNA synaptic complex”

Legend:
bsKu core (wild type) [1] = molecular target: T1, bsKu core (wild type) (Bacillus subtilis, UniProt O34859 18-244); experiment: size-exclusion chromatography; 1:1 complex, no oligomerization; EMSA: 20 mM HEPES pH 7.5, 150 mM KCl, 1 mM DTT, 50 nM DNA, 30 min at 4°C, 15% native PAGE in 0.5x TBE, SYBR Gold; SEC: same buffer, protein:DNA 1:2, 1 h at 4°C, Superdex 75; conditions: protein: recombinant; tags: N-terminal 8xHis-MBP, cleaved with PreScission protease; chain copies: 2; 2-nt overhang; main text says at one end
T1 sequence: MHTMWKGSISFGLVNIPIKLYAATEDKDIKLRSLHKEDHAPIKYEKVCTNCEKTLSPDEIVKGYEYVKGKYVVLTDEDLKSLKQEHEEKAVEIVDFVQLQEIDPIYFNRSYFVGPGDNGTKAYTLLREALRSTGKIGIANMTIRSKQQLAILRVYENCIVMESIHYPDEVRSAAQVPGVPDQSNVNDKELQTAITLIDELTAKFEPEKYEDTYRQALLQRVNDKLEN

bsKu core (wild type) [2] = molecular target: T1, bsKu core (wild type); experiment: cryo-EM; 2.74 A; two blunt ends bridged by two Ku homodimers; EMSA: 20 mM HEPES pH 7.5, 150 mM KCl, 1 mM DTT, 50 nM DNA, 30 min at 4°C, 15% native PAGE in 0.5x TBE, SYBR Gold; SEC: same buffer, protein:DNA 1:2, 1 h at 4°C, Superdex 75; conditions: protein: recombinant, tags: N-terminal 8xHis-MBP, cleaved with PreScission protease, chain copies: 2

B1: 11-bp DNA with 2-nt overhang (dsDNA)
DNA 1: ACACACGCCGAGC
DNA 2: GCTCGGCGTGT
- binding result (bsKu core (wild type) [1]): binds

B2: 13-bp DNA (dsDNA)
DNA 1: GTACCTGTAGAAG
DNA 2: CTTCTACAGGTAC
- binding result (bsKu core (wild type) [2]): binds
